The results in this text go back to patent US20260146099A1 (SELVAX, published 2026).

Read-outs that look alike come from different tables or passages of the source.

Assay [1] concerns the target Recombinant canine CD40 extracellular domain with human IgG1 Fc domain tag (canine; human) (UniProt Q7YRL5). The assay is described as follows: SPR (Biacore T200), single-cycle kinetics, canine CD40-Fc immobilised, antibody 2-32 nM as analyte, bivalent analyte model, first site, average n=5.
The target in assay [2] is T1, Recombinant canine CD40 extracellular domain with human IgG1 Fc domain tag (canine; human, UniProt Q7YRL5 21-194).
T1 construct: extracellular domain; Amine-coupled to a CM5 chip; also called caCD40-Fc; canine CD40-Fc; not shown: human IgG1 Fc domain tag
T1 sequence (looked up): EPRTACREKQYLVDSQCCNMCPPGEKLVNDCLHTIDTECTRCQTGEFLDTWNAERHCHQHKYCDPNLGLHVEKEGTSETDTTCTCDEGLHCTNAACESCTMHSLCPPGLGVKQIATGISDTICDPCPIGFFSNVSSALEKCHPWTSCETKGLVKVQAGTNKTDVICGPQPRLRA
The description is as above. On the procedure:
(§1) Recombinant canine CD40 extracellular domain with human IgG1 Fc domain tag (canine CD40-Fc) was immobilised to the surface of a Series S Sensor Chip CM5 using an Amine Coupling Kit. The reference surface for analysis was prepared by immobilising human IgG1 isotype control antibody to the Series S Sensor Chip CM5 using the same method.
(§2) Kinetics/affinity analysis was carried out using the Biacore method for single-cycle kinetics. Running buffer was HBS-EP+ buffer, pH 7.4. Injection parameters were sample contact time: 180 seconds, dissociation: 600 seconds, flow rate: 30 μl/min. The concentrations of chimeric anti-CD40 antibodies used for kinetics analysis were 2 nM, 4 nM, 8 nM, 16 nM and 32 nM. Regeneration was with 50 mM NaOH for 30 seconds at 30 μl/min. Experimental data was fitted to a bivalent analyte binding model.

The target of assay [3] is T2, Recombinant canine CD40/TNFRSF5 protein (his tag) (canine, UniProt Q7YRL5 21-194).
T2 construct: Sino Biological 70105-D08H, expressed in a human cell line from Met1-Ala194; signal peptide Met1-Pro20 predicted cleaved; also called antigen; StP1a (canine CD40)
T2 sequence: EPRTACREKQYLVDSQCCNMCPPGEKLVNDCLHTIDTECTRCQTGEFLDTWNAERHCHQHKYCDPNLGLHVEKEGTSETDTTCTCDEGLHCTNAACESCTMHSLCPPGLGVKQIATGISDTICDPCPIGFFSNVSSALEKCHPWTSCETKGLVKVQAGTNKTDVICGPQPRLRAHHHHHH
The experiment in a line: ELISA, absorbance on StP1a over absorbance on Irrelevant His Tag (RgN3a). In general terms: ELISA stands for enzyme-linked immunosorbent assay.

Assay [4] addresses T2, Recombinant canine CD40/TNFRSF5 protein …. The description is as above. This is another data set of the same source.
The target in assay [5] is T1, Recombinant canine CD40 extracellular …. The assay is described as follows: SPR (Biacore T200), single-cycle kinetics, canine CD40-Fc immobilised, antibody 2-32 nM as analyte, bivalent analyte model, first site, average n=5. On the procedure: as §1
Kinetics/affinity analysis was carried out using the Biacore method for single-cycle kinetics. Running buffer was HBS-EP+ buffer, pH 7.4. Injection parameters were sample contact time: 180 seconds, dissociation: 600 seconds, flow rate: 30 μl/min. The concentrations of purified anti-dog CD40 antibodies used for kinetics analysis were 2 nM, 4 nM, 8 nM, 16 nM and 32 nM. Regeneration was with 50 mM NaOH for 30 seconds at 30 μl/min. Experimental data was fitted to a bivalent analyte binding model.
The source holds these as a separate data set.

Assay [6] shares this target. The assay is described as follows: SPR (Biacore T200), single-cycle kinetics, canine CD40-Fc immobilised, antibody 2-32 nM as analyte, bivalent analyte model, first site, average n=6. On the procedure: as §1, §2
A general note: SPR reads the build-up and loss of mass on a sensor chip optically.

As usually defined, the koff is a measure of how fast the partners let go of each other. A word on the kon: it is the rate constant with which the complex forms.

Turning to anti-human CD40 antibody 21.4.1, in assay [1], the Kd worked out at 257 nM, the koff was 0.0143 s⁻¹ and the association rate constant (kon) is 58000 M⁻¹ s⁻¹.

B1: SVX-2001A (antibody)
heavy: QVQLQQSGPELVQPGASVKISCRASGYSFTSYYIHWVKQRPGQGLEWIGWIFPGSGNTKYNEKFRGKATLTADTSSSTAYTQVSSLTSEDSAVYFCARKSPYGNYAMDYWGQGTSVTVSSASTTAPSVFPLAPSCGSTSGSTVALACLVSGYFPEPVTVSWNSGSLTSGVHTFPSVLQSSGLHSLSSMVTVPSSRWPSETFTCNVVHPASNTKVDKPVFNECRCTDTPPCPVPEPLGGPSVLIFPPKPKDILRITRTPEVTCVVLDLGREDPEVQISWFVDGKEVHTAKTQSREQQFNGTYRVVSVLPIEHQDWLTGKEFKCRVNHIDLPSPIERTISKARGRAHKPSVYVLPPSPKELSSSDTVSITCLIKDFYPPDIDVEWQSNGQQEPERKHRMTPPQLDEDGSYFLYSKLSVDKSRWQQGDPFTCAVMHETLQNHYTDLSLSHSPGK
light: DILLTQSPAILSVSPGERVSFSCRASQSIGTSIHWYQQRTNGSPRLLIKSASESISGIPSRFSGSGSGTDFTLSINSVESEDIADYYCQQSNSWPYTFGGGTKLEIKRNDAQPAVYLFQPSPDQLHTGSASVVCLLNSFYPKDINVKWKVDGVIQDTGIQESVTEQDKDSTYSLSSTLTMSSTEYLSHELYSCEITHKSLPSTLIKSFQRSECQRVD
notes: also called chimeric dog IgGA, k antibody derived from StP1.RD1.G9.H5
As for B1, in assay [2], the Kd was found to be 1.85 nM, the koff is 0.000659 s⁻¹ and the kon was determined as 370000 M⁻¹ s⁻¹.

B2: SVX-2001C (antibody)
heavy: QVQLQQSGPELVQPGASVKISCRASGYSFTSYYIHWVKQRPGQGLEWIGWIFPGSGNTKYNEKFRGKATLTADTSSSTAYTQVSSLTSEDSAVYFCARKSPYGNYAMDYWGQGTSVTVSSASTTAPSVFPLAPSCGSQSGSTVALACLVSGYIPEPVTVSWNSVSLTSGVHTFPSVLQSSGLYSLSSMVTVPSSRWPSETFTCNVAHPATNTKVDKPVAKECECKCNCNNCPCPGCGLLGGPSVFIFPPKPKDILVTARTPTVTCVVVDLDPENPEVQISWFVDSKQVQTANTQPREEQSNGTYRVVSVLPIGHQDWLSGKQFKCKVNNKALPSPIEEIISKTPGQAHQPNVYVLPPSRDEMSKNTVTLTCLVKDFFPPEIDVEWQSNGQQEPESKYRMTPPQLDEDGSYFLYSKLSVDKSRWQRGDTFICAVMHEALHNHYTQISLSHSPGK
light: B1 light
notes: also called chimeric dog IgGC, k antibody derived from StP1.RD1.G9.H5
Turning to B2, in assay [2], the Kd turned out to be 3.36 nM, the koff amounted to 0.00172 s⁻¹ and the kon came out at 519000 M⁻¹ s⁻¹.

B3: SVX-2001D (antibody)
heavy: QVQLQQSGPELVQPGASVKISCRASGYSFTSYYIHWVKQRPGQGLEWIGWIFPGSGNTKYNEKFRGKATLTADTSSSTAYTQVSSLTSEDSAVYFCARKSPYGNYAMDYWGQGTSVTVSSASTTAPSVFPLAPSCGSTSGSTVALACLVSGYFPEPVTVSWNSGSLTSGVHTFPSVLQSSGLYSLSSTVTVPSSRWPSETFTCNVVHPASNTKVDKPVPKESTCKCISPCPVPESLGGPSVFIFPPKPKDILRITRTPEITCVVLDLGREDPEVQISWFVDGKEVHTAKTQPREQQFNSTYRVVSVLPIEHQDWLTGKEFKCRVNHIGLPSPIERTISKARGQAHQPSVYVLPPSPKELSSSDTVTLTCLIKDFFPPEIDVEWQSNGQPEPESKYHTTAPQLDEDGSYFLYSKLSVDKSRWQQGDTFTCAVMHEALQNHYTDLSLSHSPGK
light: B1 light
notes: also called chimeric dog IgGD, k antibody derived from StP1.RD1.G9.H5
Turning to B3, in assay [2], the Kd was determined as 2.6 nM, the koff was found to be 0.000932 s⁻¹ and the kon was 359000 M⁻¹ s⁻¹.

B4: SVX-2001B (antibody)
heavy: QVQLQQSGPELVQPGASVKISCRASGYSFTSYYIHWVKQRPGQGLEWIGWIFPGSGNTKYNEKFRGKATLTADTSSSTAYTQVSSLTSEDSAVYFCARKSPYGNYAMDYWGQGTSVTVSSASTTAPSVFPLAPSCGSTSGSTVALACLVSGYFPEPVTVSWNSGSLTSGVHTFPSVLQSSGLYSLSSMVTVPSSRWPSETFTCNVAHPASKTKVDKPVPKRENGRVPRPPDCPKCPAPEMLGGPSVFIFPPKPKDTLLIARTPEVTCVVVDLDPEDPEVQISWFVDGKQMQTAKTQPREEQFNGTYRVVSVLPIGHQDWLKGKQFTCKVNNKALPSPIERTISKARGQAHQPSVYVLPPSREELSKNTVSLTCLIKDFFPPDIDVEWQSNGQQEPESKYRTTPPQLDEDGSYFLYSKLSVDKSRWQRGDTFICAVMHEALHNHYTQESLSHSPGK
light: B1 light
notes: also called chimeric dog IgGB, k antibody derived from StP1.RD1.G9.H5
Consider B4, for which, in assay [2], the Kd was found to be 3.36 nM, the koff is 0.00155 s⁻¹ and the kon stood at 461000 M⁻¹ s⁻¹.

B5: StP1.RE2.D7b.B5 (antibody, V domains shown)
VH: QVQLQQSGPELVKPGASVKISCKASGYSFTSYYIHWVKQSPGQGLEWIGWIFPGSGNTKYNEKFKGKATLTADTSSSTAYMQLSSLTSEDSAVYFCARRGTTRDALDYWGQGTSVTVSS
VL: DILLTQSPAILSVSPGERVSFSCRASQSIGTSIHWFQQRTNGSPRVLIKYASQSISGIPSRFSGSGSGTDFTLSINSVESEDIADYYCQQSYTWPFTFGSGTKLAIKR
For the molecule B5, in assay [3], the “positive:negative ratio” value turned out to be 10.8.

B6: StP1.RD1.G9.H5 (antibody, V domains shown)
VH: QVQLQQSGPELVQPGASVKISCRASGYSFTSYYIHWVKQRPGQGLEWIGWIFPGSGNTKYNEKFRGKATLTADTSSSTAYTQVSSLTSEDSAVYFCARKSPYGNYAMDYWGQGTSVTVSS
VL: DILLTQSPAILSVSPGERVSFSCRASQSIGTSIHWYQQRTNGSPRLLIKSASESISGIPSRFSGSGSGTDFTLSINSVESEDIADYYCQQSNSWPYTFGGGTKLEIKRADAAPTVS
notes: also called purified monoclonal antibody from hybridoma cell-line StP1.RD1.G9.H5
Consider B6, for which the “positive:negative ratio” value in assay [4] is 12.4. In assay [5], the Kd is 5.24 nM, the koff stood at 0.00157 s⁻¹ and the kon is 312000 M⁻¹ s⁻¹. Further, in assay [6], the Kd worked out at 2.85 nM, the koff was 0.00106 s⁻¹ and the kon worked out at 372000 M⁻¹ s⁻¹.
